In the supplement of paper PMC12764529:
± gives the half width of the 95% confidence interval.

What was measured:
[1] = folding stability dG unfold from trypsin proteolysis; higher = more stable
Summary of the method: (§1)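 Unfolding free energy was derived, per protease or combined, by relating Bayesian-fitted K50 values from sequencing counts to a sequence-predicted unfolded-state K50 and a shared folded-state K50. The underlying digests exposed cysteine-free mini-proteins under 80 residues, in a PA-tagged cDNA display construct, to trypsin and chymotrypsin at 11 threefold-diluted concentrations and to a no-protease condition. A filter kept only designs with AlphaFold2 dimer inter-PAE above 15.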

[2] = folding stability dG unfold from chymotrypsin proteolysis; higher = more stable
Summary of the method: as §1

[3] = folding stability dG unfold (combined trypsin and chymotrypsin); higher = more stable
Summary of the method: as §1

Sequence | folding stability dG unfold [1] [kcal/mol] | folding stability dG unfold [2] [kcal/mol] | folding stability dG unfold [3] [kcal/mol]
SAGGSAGGSANMPPEELADWIADKFQQRHGHPVKEIEVEHDPENNNYTITVEFDDKERTITLSAGGSAGGSA [r18_145_TrROS] | -0.271 ± 0.15 | 0.839 ± 0.28 | 0.591 ± 0.22
SAGGSAGGSANRKVIQFDSPEEILEAIDEAPEDDPVIIEWHDPDGGEPWWIKFDGDEIELIMSAGGSAGGSA [r18_407_TrROS] | -0.66 ± 0.23 | -0.277 ± 0.41 | -0.511 ± 0.45
SAGGSAGGSAPDIKIEKIGENTYKITLNFEFTFEDGSKVKVKITFTFTVNFPEDDPLLKELFSAGGSAGGSA [r18_215_TrMRF] | 2.71 ± 0.061 | 3.213 ± 0.028 | 3.02 ± 0.11
SAGGSAGGSAPDNVEIEVYELPAGMYRVKIWPPGGNRHEFNFPPGEPKKIKIPPGVSIEIWPFSAGGSAGGS [r12_517_TrROS] | 0.462 ± 0.15 | 0.763 ± 0.29 | 0.743 ± 0.22
SAGGSAGGSAPELVKKIAEELPVPVKVEPFGNVLLVELELPNEDGEPVKLRLAIPIPPELLGSAGGSAGGSA [r18_27_TrMRF] | -0.195 ± 0.11 | 0.909 ± 0.12 | 0.463 ± 0.19
SAGGSAGGSAPGKSITITFLFIWPDGWILVMKITFDPDGPGDIDIEWQWIPIPPPEPPPEDPSAGGSAGGSA [r18_409_TrROS] | 3.61 ± 0.29 | 5.37 ± 0.32 | 5.16 ± 0.46
SAGGSAGGSAPIKITEHTYNPGDGMVWATAEAEDPNGWKIKLTIWFFPDGNIQIEITEIVPSAGGSAGGSAG [r3_7_TrROS] | 2.45 ± 0.18 | 4.39 ± 0.14 | 3.83 ± 0.28
SAGGSAGGSAPKEVVVLDLKISPVPDPRYFPAEFTVYIPENGKPFPVTAVFDPEGGEVTIGSAGGSAGGSAG [r3_1_TrMRF] | 2.7 ± 0.071 | 3.23 ± 0.1 | 3.04 ± 0.12
SAGGSAGGSAPKPIEITFPAKSLEEAKIAAEEIKRAFEELEDVKVEVEYDPETGTVTVRVYGSAGGSAGGSA [r18_368_TrMRF] | 2.88 ± 0.12 | 3.58 ± 0.07 | 3.38 ± 0.088
SAGGSAGGSAPKVEPHPVTFTFENAVVTVTRYRVPDEDGNPLYFTSVSVFFLDKDGKPGFVFPSAGGSAGGS [r20_13_TrMRF] | 3.28 ± 0.076 | 4.82 ± 0.069 | 4.35 ± 0.18
SAGGSAGGSAPLIELRPPEEPLFLPLENLLGRGIPLEELAKLLEKLTGRKVEPVKPGYIRTGSAGGSAGGSA [r18_7_TrMRF] | -0.192 ± 0.38 | -0.128 ± 0.25 | -0.161 ± 0.44
SAGGSAGGSAPNLEVEEQRNPDGGMEMEIIRLKNDGLTIFFMEMRPDDKTMTMLMLMPLDASAGGSAGGSAG [r3_126_TrROS] | 2.19 ± 0.19 | 2.32 ± 0.13 | 2.48 ± 0.19
SAGGSAGGSAPNMDWVMIPIRVPPGEPPKVKITFPDGPTREFDPGRWVWIWFPPGDPMKIEPESAGGSAGGS [r12_553_TrROS] | 1.04 ± 0.035 | 1.87 ± 0.13 | 1.54 ± 0.15
SAGGSAGGSAPPLKILRPEATVHPDGGVTVVAELEGGYLVVETVTFDPETGTASSSVEIVPLDSAGGSAGGS [r20_15_TrMRF] | -0.813 ± 0.12 | 1.03 ± 0.015 | 0.705 ± 0.047
SAGGSAGGSAPPNDWYVGIMEITININIDADQLPPPLREKFEKNGIKEIRITFVSVFPPDDFSAGGSAGGSA [r18_127_TrROS] | 2.76 ± 0.21 | 3.56 ± 0.11 | 3.14 ± 0.19
SAGGSAGGSAPPYKYVQIELWIPGPIEEIADELQDNFGIRSIDVKRDPENGWVRADIYFQFPSAGGSAGGSA [r18_275_TrROS] | 2.07 ± 0.046 | 2.444 ± 0.024 | 2.26 ± 0.14
SAGGSAGGSAPRVRYRRRVLVYFPADGSVVPVVLEVSPGPLTLRLDLPAASFPPVRIAPLGSAGGSAGGSAG [r3_454_TrMRF] | 1.28 ± 0.066 | 2.58 ± 0.098 | 1.98 ± 0.14
SAGGSAGGSAPVAYTITITYRDPDGSTRTLTLTFPNLTPEEAKEAAEALPIPASVVSIDITKASAGGSAGGS [r12_886_JUSTAS] | 2.24 ± 0.059 | 3.745 ± 0.035 | 3.29 ± 0.082

Sequence | folding stability dG unfold [1] [kcal/mol] | folding stability dG unfold [2] [kcal/mol] | folding stability dG unfold [3] [kcal/mol]
SAGGSAGGSAPVFLRVEVENPNGERFELTAKLGDPIEIDPSVVDNVKVEVFDPDGNKAEFELNSAGGSAGGS [r12_380_TrMRF] | 0.284 ± 0.042 | 0.611 ± 0.057 | 0.506 ± 0.069
SAGGSAGGSAPVFTSPEEAEKYAREKLLREKPESHPDLVVNVNVTVTTEPDGTITIEIDYKESAGGSAGGSA [r18_440_JUSTAS] | 0.932 ± 0.092 | 1.72 ± 0.086 | 1.29 ± 0.14
SAGGSAGGSAPWRIRIRDPNGKKVEIPWEEVADKFGIPPEEMTLDDILEAFANNIDRIEIVDSAGGSAGGSA [r18_403_TrROS] | 0.91 ± 0.067 | 0.361 ± 0.12 | 0.64 ± 0.081
SAGGSAGGSARITVTPEGGYWRVTIKGPGKTRTFQFPMPANEAEEIVEELQNPPIDIDVEPVSAGGSAGGSA [r18_103_TrROS] | -0.328 ± 0.3 | -0.142 ± 0.2 | -0.115 ± 0.14
SAGGSAGGSASEIMDEFPNLEIDNVNPDHGMMIIKWPDGWYWRVNVGNGEIEPVSPEDLEDMSAGGSAGGSA [r18_381_TrROS] | 0.447 ± 0.037 | 0.983 ± 0.083 | 0.828 ± 0.18
SAGGSAGGSASLSPEKKVTIKTTVPQPTPPAVTTTLTGQFPSSLTLEELAEKDPNATVSITGSAGGSAGGSA [r18_279_JUSTAS] | 0.221 ± 0.059 | 1.36 ± 0.014 | 1.04 ± 0.055
SAGGSAGGSASMSPEELAEKYREEYEKKYGIPAVEVKVEVIPEEEKYVITIKLPGSEITVIVSAGGSAGGSA [r18_145_JUSTAS] | 3.62 ± 0.26 | 2.74 ± 0.089 | 3.11 ± 0.13
SAGGSAGGSASMTVRATLPNGEEIEFEADVIKADPGGDSVTVYLILPNGGEIPFEVELEEEESAGGSAGGSA [r18_163_TrMRF] | 0.37 ± 0.042 | 0.706 ± 0.19 | 0.574 ± 0.076
SAGGSAGGSASNVKILGLVSVDPETGLVRLAAYDPETGKVLYFIAPNADGEPLLLEVEENPGSAGGSAGGSA [r18_296_TrMRF] | 1.8 ± 0.041 | 2.44 ± 0.056 | 2.21 ± 0.071
SAGGSAGGSASPVPVVEVEITPVKLPGDETAAKITVLLEGDGEPVVVWFDSKDVEKVIEEVLASAGGSAGGS [r20_238_JUSTAS] | 0.293 ± 0.12 | 0.847 ± 0.025 | 0.774 ± 0.11
SAGGSAGGSASSIVLTKTPGSYVLTEVELSSSTYPPSPPDYGSVVTVTPLEVVEREPGVPLPSAGGSAGGSA [r18_255_JUSTAS] | 0.0789 ± 0.12 | 0.263 ± 0.19 | 0.176 ± 0.18
SAGGSAGGSASSMVKPEKLPNGEKVVVTTETVPDPNSDTPVTVVTTEIYKGDKIVEVKTTLVSAGGSAGGSA [r18_185_JUSTAS] | 0.339 ± 0.038 | 0.384 ± 0.12 | 0.439 ± 0.13
SAGGSAGGSASSMVTVTVSVSPDEGDEEVAKEIAKELGRPDAKVTKITYDPATGTLTITLVDSAGGSAGGSA [r18_481_JUSTAS] | 1.61 ± 0.067 | 1.53 ± 0.062 | 1.58 ± 0.11
SAGGSAGGSASTITITTPSGEKVKVTLTSLPTPTTLATITVTSTGKTYTIVIAPDGTITLASAGGSAGGSAG [r3_15_JUSTAS] | 3.4 ± 0.067 | 3.66 ± 0.026 | 3.54 ± 0.075
SAGGSAGGSASVVADENKIVVTFPNGKVVELDLSDPKKAKEKLLALKPLDIPPITLELVPPASAGGSAGGSA [r18_68_JUSTAS] | -0.139 ± 0.071 | 0.842 ± 0.041 | 0.572 ± 0.12
SAGGSAGGSATATVTPHEGAWTVTVTGPDSTETFTFEADEETVREFVELLKAPDVDIDPVPGSAGGSAGGSA [r18_103_TrMRF] | 1.79 ± 0.07 | 1.12 ± 0.096 | 1.46 ± 0.086
SAGGSAGGSATIWIPVSQIEEFLKQMPPDRIKEVKITYDPEDGWIPVKIPGGREIMIWVPKSAGGSAGGSAG [r3_291_TrROS] | 1.15 ± 0.029 | 0.83 ± 0.054 | 1.06 ± 0.076
SAGGSAGGSATLTLELEIEVDGVRFRVRAELRLDEDGRLHLRVEIEVEPLPPPPPLVAEGEELSAGGSAGGS [r20_30_TrROS_Hall] | 2.88 ± 0.14 | 4.33 ± 0.23 | 4.05 ± 0.3
